We go through 2 molecules from publication PMC6561018, “Structure and Properties of a Natural Competence-Associated Pilin Suggest a Unique Pilus Tip-Associated DNA Receptor” (mBio, 2019).

In series [1] the target is T1, ComZ (residues 31 to 554), Thermus thermophilus HB27 (Thermus thermophilus HB27, UniProt Q8KPZ1 31-554).
T1 construct: Cloned into pET-22b (NcoI/XhoI); also called recombinant ComZ fragment; comZ-22b construct; source: E. coli T7 Express, purified (HisTrap HP, SEC); not shown: His6, C-terminal, kept
T1 sequence (looked up): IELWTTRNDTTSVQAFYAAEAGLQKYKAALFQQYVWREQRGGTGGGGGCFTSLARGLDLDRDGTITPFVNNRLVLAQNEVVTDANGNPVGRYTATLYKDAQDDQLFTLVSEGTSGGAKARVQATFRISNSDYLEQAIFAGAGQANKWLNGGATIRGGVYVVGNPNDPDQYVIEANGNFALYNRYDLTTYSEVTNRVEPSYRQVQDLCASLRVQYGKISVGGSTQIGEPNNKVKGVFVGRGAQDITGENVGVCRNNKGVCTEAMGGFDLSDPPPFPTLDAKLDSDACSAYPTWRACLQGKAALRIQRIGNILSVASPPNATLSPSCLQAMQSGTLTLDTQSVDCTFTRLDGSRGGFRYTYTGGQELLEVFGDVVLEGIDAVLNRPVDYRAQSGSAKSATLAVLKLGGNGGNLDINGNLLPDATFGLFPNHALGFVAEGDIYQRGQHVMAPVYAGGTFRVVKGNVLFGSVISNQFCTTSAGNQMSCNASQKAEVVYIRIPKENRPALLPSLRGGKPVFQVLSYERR
Briefly: ITC; MicroCal PEAQ-ITC; 20 aliquots of 2 μl PilA2 (314 μM) titrated into 300 μl ComZ (33 μM), 25°C; fitted assuming a single binding site. The following applies: both partners purified. A general note: In ITC the heat of successive injections is recorded.

Series [2] concerns the molecule itself. Briefly: SEC; HiLoad 16/600 Superdex 200 PG, 1 ml/min, 25 mM Tris-HCl pH 8.0, 200 mM NaCl, 5% glycerol; proteins incubated together at 4°C for 30 min before the run; each protein also run alone; peaks checked by SDS-PAGE. (In general: SEC sorts molecules by how far they enter the pores of the column.)

B1: PilA2 soluble domain (residues 33 to 193), Thermus thermophilus HB27 (domain or fragment, UniProt Q72JC3 33-193, looked up)
chain: RASAQARFATDAKAAAVQVLERRSAEVLKSEIVPALSPYKDAPLDPDNPSGNWRSFYFVDYYFSCPTRVAPSPKQRGGSVANLRPGLTCSGTETIFGIPVAWDIRGENGILGEGVVTVVVTATHPRGPKVTLGRRVTCYDVYPSPTQDQPAPCPPPGGGRP
notes: Synthetic gene (GeneArt), codon-optimised for E. coli, in pET-22b (BamHI/XhoI); also called recombinant PilA2; source: E. coli Lemo21(DE3), purified (StrepTrap HP, SEC); not shown: Strep-tag II, C-terminal, kept
For orientation: Kd means the constant that tells how readily two partners part at equilibrium. Low readings indicate a tighter complex, high ones a looser complex. In general, stoichiometry N refers to a count of units in the complex or per binding partner. B1: in series [1], binding was put at a Kd of 690 nM, the dH worked out at 2.3 kcal/mol and the “stoichiometry N” value is 1.1.

B2: PilA3 soluble domain (residues 33 to 233), Thermus thermophilus HB27 (domain or fragment, UniProt Q72JC2 33-233, looked up)
chain: ELARNTQARSELQDRVRMVMQVVTADLQMAGARYWNSGNQNQAFSLPLPPLSGSNMGPKDTLTLYYVTSLRDLASACRRVDYGFEGDTLRRSDVNATPSSGSDCTTPPPNSQPLAEGMLALDIQYQCSDGSRKDTPDCGTDAYPRSAKVTVAGYSLTSVTNPGPASLTTVTGKTLACPQGRACYALTQEVLMPNLKPLPTP
notes: Synthetic gene (GeneArt), codon-optimised for E. coli, in pET-22b (BamHI/XhoI); source: E. coli Lemo21(DE3), purified (StrepTrap HP, SEC); not shown: Strep-tag II, C-terminal, kept
In the case of B2, the binding result in series [2] is recorded as “binds”.
